Measurements: patent US20210347908A1 (ELPISCIENCE SUZHOU BIOPHARMA, published 2021)
Like-named read-outs stand apart in the source and are kept apart here.

T1: full length C57BL/6 mouse SIRPα stably expressed on CHOK1 cells (mouse (C57BL/6), UniProt P97797 32-513)
T1 construct: whole, on cells; also called CHOK1-C57BL/6 mouse SIRPα-2.22 cells
T1 sequence (looked up): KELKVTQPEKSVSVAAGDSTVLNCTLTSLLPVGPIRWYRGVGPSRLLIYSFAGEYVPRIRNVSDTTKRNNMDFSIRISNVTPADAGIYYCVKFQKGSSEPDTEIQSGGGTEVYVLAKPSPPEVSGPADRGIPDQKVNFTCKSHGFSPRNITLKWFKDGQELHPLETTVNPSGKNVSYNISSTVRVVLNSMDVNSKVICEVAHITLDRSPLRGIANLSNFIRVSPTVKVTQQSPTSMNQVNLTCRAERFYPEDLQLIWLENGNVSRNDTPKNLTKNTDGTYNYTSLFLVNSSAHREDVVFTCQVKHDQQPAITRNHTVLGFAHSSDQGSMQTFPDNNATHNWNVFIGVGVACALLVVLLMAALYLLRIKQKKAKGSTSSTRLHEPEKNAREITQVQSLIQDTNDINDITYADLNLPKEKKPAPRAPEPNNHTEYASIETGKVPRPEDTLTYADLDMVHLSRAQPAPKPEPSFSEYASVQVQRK


Key:
[1] = target: T2, Fc tagged human SIRPα v1 ECD recombinant protein (human, UniProt P78324 31-370); test: ELISA
T2 construct: range 1-370; cloned range M1-R370 includes the signal peptide; also called hSIRPα V1; not shown: human IgG Fc region (hFc) of the pCPC vector
Method: (§1) Binding specificity of the purified hybridoma antibodies against SIRP family members was detected by ELISA assay using recombinant proteins of Fc tagged human SIRPα v1 ECD, human SIRPα v2 ECD, human SIRPβ ECD and human SIRPγ ECD. Briefly the antibodies were incubated with ELISA microplate coated antigens at 37° C. for 1 hour. After washing, horseradish peroxidase (HRP) labeled anti-mouse or anti-human IgG 2nd Ab (Sigma) was added and incubated at 37° C. for 1 hour. Then, 100 μl/well of TMB solution (Biotechnology) was added. After incubation for 15 minutes at room temperature, the reaction was stopped by the addition of 50 μl of 1N HCl. OD 450 nm was read and EC₅₀ was calculated. Other than 060 and HEFLB, all of the antibodies as tested can bind with both human SIRPα v1 and SIRPα v2. 060 and HEFLB can bind with human SIRPα v1 but not v2. Other than 055, all of the antibodies as tested can bind with human SIRPβ. In comparison with other known anti-SIRPα antibodies, only 022, 035 and 050 can bind with human SIRPγ weakly.
(§2) The purified chimeric antibodies were applied for binding specificity analysis and species cross reactivity analysis (refer to methods described in Example 3.3 and 3.4). FIGS. 1A to 1D show binding specificity of anti-SIRPα chimeric antibodies against recombinant proteins of human SIRPα v1 ECD (A), human SIRPα v2 ECD (B), human SIRPβ ECD (C) and human SIRPγ ECD (D) as measured by ELISA analysis.

[2] = target: T3, full length human SIRPα v1 stably expressed on CHOK1 cells (human, UniProt P78324 31-504); test: FACS on CHOK1 cells
T3 construct: whole, on cells; also called CHOK1-human SIRPα v1-1B4 cells; CHOK1-human SIRPα v1
Method: Species cross reactivity of the purified hybridoma antibodies against human, cyno and mouse SIRPα was determined by FACS assay using CHOK1-human SIRPα v1-1B4 cells, CHOK1-cyno SIRPα-2A2 cells, and CHOK1-C57BL/6 mouse SIRPα-2.22 cells, which stably expressing SIRPα protein. Briefly the antibodies were incubated with 2×10⁵ target cells at 4° C. for 1 hour. After washing, fluorescence labeled anti-mouse or anti-human IgG 2nd antibody (Life Technologies) was added and incubated at 4° C. for 1 hour. Geometric median fluorescence intensity was detected and EC₅₀ was calculated. In particular, it is noted, in contrast to the other antibodies tested in the same experiment, 060 cannot bind with cyno SIRPα and 035 has cross reactivity against C57BL/6 mouse SIRPα. […]

[3] = target: T4, biotin labeled soluble human SIRPα v1 ECD recombinant protein (human, UniProt P78324 31-373, biotin labeled); test: competitive ELISA; competitor 074
T4 construct: extracellular domain
Method: (§3) Competitive ELISA assay was used for epitope binning of 9 functional antibodies. Briefly excessive competitor antibody and biotin labeled soluble human SIRPα v1 ECD recombinant protein were co-incubated with ELISA microplate coated antibody. After washing, HRP-SA was added and incubated at 37° C. for 1 hour. Then, […] of TMB solution (Biotechnology) was added. After incubation for 15 minutes at room temperature, the reaction was stopped by the addition of […] of 1N HCl. OD 450 nm was read. Competition ratio was calculated. The antibodies that can compete each other for binding to SIRPα have the similar binding epitope.

[4] = target: T4, biotin labeled soluble human SIRPα v1 …; test: competitive ELISA; competitor 060
Method: as §3

[5] = target: T3, full length human SIRPα v1 stably …; test: FACS on CHOK1 cells; remark: listed apart in the source
[6] = target: T2, Fc tagged human SIRPα v1 ECD …; test: ELISA; remark: listed apart in the source
Method: as §1, §2

[7] = target: T3, full length human SIRPα v1 stably …; test: FACS on CHOK1 cells; remark: listed apart in the source
Method: (§4) Species cross reactivity of the purified hybridoma antibodies against human, cyno and mouse SIRPα was determined by FACS assay using CHOK1-human SIRPα v1-1B4 cells, CHOK1-cyno SIRPα-2A2 cells, and CHOK1-C57BL/6 mouse SIRPα-2.22 cells, which stably expressing SIRPα protein. Briefly the antibodies were incubated with 2×10⁵ target cells at 4° C. for 1 hour. After washing, fluorescence labeled anti-mouse or anti-human IgG 2nd antibody (Life Technologies) was added and incubated at 4° C. for 1 hour. Geometric median fluorescence intensity was detected and EC₅₀ was calculated. In particular, it is noted, in contrast to the other antibodies tested in the same experiment, 060 cannot bind with cyno SIRPα and 035 has cross reactivity against C57BL/6 mouse SIRPα.
as §2

[8] = target: T1, full length C57BL/6 mouse SIRPα stably …; test: FACS on CHOK1 cells
Method: as §4, §2

| Binder | EC50 [1] [nM] | EC50 [2] [nM] | % Competition [3] [%] | % Competition [4] [%] | EC50 [5] [nM] | EC50 [6] [nM] | EC50 [7] [nM] | binding result [8] | MFI at 10 nM [8] [MFI] |
| --- | --- | --- | --- | --- | --- | --- | --- | --- | --- |
| chimeric antibody 035c (antibody, V domains shown) VH: QIQLVQSGPELRKPGETVKISCKASGYSFTNYAMNWVKQAPGKVLKWMGFINTYTGEPTYADDFKGRFAFSLETSASTAYLQINNLKNEDTATYFCTRTRGYYDFDGGAFDYWGQGTSLTVSS VL: DIVMTQSQKFMSTSIGDRVSVTCKASQNVGTHLAWYQQKPGQSPKALIFSASYRYIGVPDRFTGSGSGTDFTLTITNVQSEDLAEYFCQQYNTYPLTFGAGTKLELK | 0.08 | 1.3 |  |  | 1.5 | 0.08 | 1.3 |  | 13400 |
| chimeric antibody 055c (antibody, V domains shown) VH: EVKLVESEGGLVQPGDSMKLSCTASGFTFSDYFMTWIRQVPEKGLEWIANVNYDGRSTYYLDSLKSRFIISRDNANNILYLQMSSLKSEDTATYYCAREGSQTPLYAVDYWGQGTSVTVSS VL: DIVMTQSQKFMSTTVGDRVNITCKASQNVGTAVAWYQQKPGQSPKLLIYLASNRYTGVPDRFTGSGSGTDFTLTVSDMRSEDLADYFCQQYSIYPFTFGSGTKLEIK | 0.11 | 3.4 |  |  |  | 0.11 | 3.4 | no binding (tested: 10 nM) |  |
| chimeric antibody 050c (antibody, V domains shown) VH: QIQLVQSGPELKKPGETVKISCKASGYTFTHYSMHWVKQAPGKGLKWMGWINTETAEPTYVDDFKGRFAFSLEASASTAFFQINNLKNEDTATYFCARGGLRQGDYWGQGTTLTVSS VL: QIVLTQSPPIMSASPGEKVTLTCSATSSVSASYLYWFQQKPGSSPKLWIYSTSNLASGVPARFSGSGSGTSYSLTISNMEPADAASYFCHQWSSYPYTFGGGTKLEIK | 0.11 | 2.4 |  |  |  | 0.11 | 2.4 | no binding (tested: 10 nM) |  |
| chimeric antibody 022c (antibody, V domains shown) VH: QIQLVQSGPELKKPGETVKISCKASGYTFTDYAMHWVKQAPGKGLKWMGWKNTETGESTYAEDFKGRFAFFLETSASTAYLQINNVKNEDTATYFCARGGYGSNYVMDYWGQGTSVIVSS VL: DIQMTQSSSSFSVSLGDRVTITCKASEDIYNRLAWYQQKPGNAPRLLISGATSLETGVPSRFSGSGSGKDYTLSITSLQTEDVATYYCQQYWNSPRTFGGGTKLEIK | 0.11 | 1.7 |  |  |  | 0.11 | 1.7 | no binding (tested: 10 nM) |  |

Further lines, results first:

| EC50 [1] [nM] | EC50 [2] [nM] | % Competition [3] [%] | % Competition [4] [%] | EC50 [5] [nM] | EC50 [6] [nM] | EC50 [7] [nM] | binding result [8] | MFI at 10 nM [8] [MFI] | Binder |
| --- | --- | --- | --- | --- | --- | --- | --- | --- | --- |
| 0.11 | 11.2 | 2 | 7 | 11.2 | 0.11 | 11.2 | no binding (tested: 10 nM) |  | reference antibody HEFLB (antibody, V domains shown) VH: EVQLVQSGAEVKKPGESLRISCKASGYSFTSYWVHWVRQMPGKGLEWMGNIDPSDSDTHYSPSFQGHVTLSVDKSISTAYLQLSSLKASDTAMYYCVRGGTGTLAYFAYWGQGTLVTVSS VL: DVVMTQSPLSLPVTLGQPASISCRSSQSLVHSYGNTYLYWFQQRPGQSPRLLIYRVSNRFSGVPDRFSGSGSGTDFTLKISRVEAEDVGVYYCFQGTHVPYTFGGGTKVEIK |
| 0.11 | 13.6 | 4 | 10 | 13.6 | 0.11 | 13.6 | no binding (tested: 10 nM) |  | reference antibody 29-AM4-5 (antibody, V domains shown) VH: EVQLVESGGGLVQPGGSLRLSCAASGFNISYYFIHWVRQAPGKGLEWVASVYSSFGYTYYADSVKGRFTISADTSKNTAYLQMNSLRAEDTAVYYCARFTFPGLFDGFFGAYLGSLDYWGQGTLVTVSS VL: DIQMTQSPSSLSASVGDRVTITCRASQSVSSAVAWYQQKPGKAPKLLIYSASSLYSGVPSRFSGSRSGTDFTLTISSLQPEDFATYYCQQAVNWVGALVTFGQGTKVEIK |
| 0.14 | 5.5 |  |  |  | 0.14 | 5.5 | no binding (tested: 10 nM) |  | chimeric antibody 074c (antibody, V domains shown) VH: QVQLQQPRAELVKPGASVMLSCKASGYTFSSYWIHWVRQGPGQGLEWIGLIHPNSGNTDCSETFKNKATLTVDTSSSTAYMQLSSLASEDSAVYYCARDGASYDWFVHWGQGTLVTVSA VL: not shown |
| 0.08 | 2.8 |  |  |  | 0.08 | 2.8 | no binding (tested: 10 nM) |  | chimeric antibody 060c (antibody, V domains shown) VH: QVQLKESGPGLVAPSESLSITCTVSGFSLTNYDISWIRQSPGKGLEWLGVIWTGGDTNFNSAFMSRLSISKDKSKSQVFLKLNSLQTDDTAIYYCVRVQYFGGSYGPMDYWGQGISVTVSS VL: DIQMTQASSYLSVSLGGRVTITCEASDHINDWLAWYQQTPGNAPRLLISGATSLETGVPSRFSGSGSGKDYTLSITSLQTEDIATYYCQQYWNTPLTFGAGTRLELK |
| 0.1 | 2.8 | 1 | 5 | 2.8 | 0.1 | 2.8 | no binding (tested: 10 nM) |  | reference antibody KWAR23 (antibody, V domains shown) VH: EVQLQQSGAELVKPGASVKLSCTASGFNIKDYYIHWVQQRTEQGLEWIGRIDPEDGETKYAPKFQDKATITADTSSNTAYLHLSSLTSEDTAVYYCARWGAYWGQGTLVTVSS VL: QIVLTQSPAIMSASPGEKVTLTCSASSSVSSSYLYWYQQKPGSSPKLWIYSTSNLASGVPARFSGSGSGTSYSLTISSMEAEDAASYFCHQWSSYPRTFGAGTKLELK |
